In patent US20220348674A1:

Columns and labels:
[1] = target: CD40 on Ramos-Blue cells (human)
[2] = target: cell surface human CD40 on HEK-CD40 cells (human) (UniProt P25942); assay: flow cytometry on HEK-CD40 cells; mAb at 5 ug/ml
[3] = target: cell surface human CD40 on HEK-CD40 cells (human) (UniProt P25942); assay: flow cytometry on HEK-CD40 cells; mAb at 12 ug/ml
[4] = target: cell surface human CD40 on HEK-CD40 cells (human) (UniProt P25942); assay: flow cytometry on HEK-CD40 cells; mAb at 1.7 ug/ml
[5] = target: cell surface human CD40 on HEK-CD40 cells (human) (UniProt P25942); assay: flow cytometry on HEK-CD40 cells; mAb at 0.02 ug/ml
[6] = target: cell surface human CD40 on HEK-CD40 cells (human) (UniProt P25942); assay: flow cytometry on HEK-CD40 cells; mAb at 0.06 ug/ml
[7] = target: cell surface human CD40 on HEK-CD40 cells (human) (UniProt P25942); assay: flow cytometry on HEK-CD40 cells; mAb at 0.56 ug/ml
[8] = target: cell surface human CD40 on HEK-CD40 cells (human) (UniProt P25942); assay: flow cytometry on HEK-CD40 cells; mAb at 0.007 ug/ml
[9] = target: cell surface human CD40 on HEK-CD40 cells (human) (UniProt P25942); assay: flow cytometry on HEK-CD40 cells; mAb at 0.78 ug/ml (so in the source)
[10] = target: cell surface human CD40 on HEK-CD40 cells (human) (UniProt P25942); assay: flow cytometry, titration on HEK-CD40 cells, CD40 MFI, anti-human IgG secondary antibody

Chain of CP-870,893, IgG2 isotype fully human anti-CD40 mAb (antibody) (VH): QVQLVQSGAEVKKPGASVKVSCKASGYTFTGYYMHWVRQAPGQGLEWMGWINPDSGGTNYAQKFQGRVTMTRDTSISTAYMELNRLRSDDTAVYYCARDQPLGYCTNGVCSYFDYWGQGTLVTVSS
Chain of CP-870,893, IgG2 isotype fully human anti-CD40 mAb (antibody) (VL): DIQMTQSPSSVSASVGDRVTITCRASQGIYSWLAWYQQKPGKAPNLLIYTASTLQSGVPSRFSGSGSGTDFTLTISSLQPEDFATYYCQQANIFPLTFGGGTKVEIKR
Chain of cell surface human CD40 on HEK-CD40 cells (human) (P25942 21-277): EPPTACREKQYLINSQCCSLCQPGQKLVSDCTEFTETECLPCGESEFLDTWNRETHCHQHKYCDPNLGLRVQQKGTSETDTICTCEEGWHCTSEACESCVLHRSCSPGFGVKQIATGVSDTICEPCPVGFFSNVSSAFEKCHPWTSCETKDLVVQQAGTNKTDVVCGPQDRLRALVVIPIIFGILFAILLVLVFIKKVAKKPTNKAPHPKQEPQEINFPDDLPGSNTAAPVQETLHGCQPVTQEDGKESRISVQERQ

Row | Substance | EC50, w/o PDL1 (Ramos-Blue NFkB-SEAP reporter, OD630, HEK-control cells added) [1] [nM] | EC50, with PDL1 (Ramos-Blue NFkB-SEAP reporter, OD630, HEK-PDL1 cells added) [1] [nM] | MFI [2] | MFI [3] | MFI [4] | MFI [5] | MFI [6] | MFI [7] | MFI [8] | MFI [9] | EC50 [10] [µg/mL]
1 | APX005m, humanized anti-CD40 mAb, IgG1 isotype with S267E mutation (antibody) | 2.6 | 2.67 | 24500 | 24700 | 23300 | 2360 | 4590 | 18200 | 1150 | 9840 | 0.28
2 | Human IgG1 isotype control (Bioxell, Catalog BE 0297) (antibody) | – | – | 112 | 73.7 | 61.3 | 40.1 | 40.2 | 30.7 | 28.3 | 32.3 | –
3 | CP-870,893, IgG2 isotype fully human anti-CD40 mAb (antibody) | 0.15 | 0.12 | 20900 | 23700 | 14100 | 635 | 1530 | 6790 | 271 | 3670 | 1.58
